Consider four substances from publication PMC11721465.

The target in assay [1] is TREM2 (19–134) WT, biotinylated (human) (UniProt Q9NZC2). Nature of the assay: BLI; biotinylated TREM2 WT or variant immobilised on SA biosensors; C1q 62.5–1000 nM; PBS with 0.1% BSA and 0.005% Tween-20; 1:1 kinetic fits.
For assay [2], the target named is TREM2 (19–134) L71D, biotinylated (human) (UniProt Q9NZC2). Described as above.
Assay [3] addresses TREM2 (19–134) R122D/K123D, biotinylated (human) (UniProt Q9NZC2). The assay is described as above.
Assay [4] has as its target TREM2 (19–134) R47H, biotinylated (human) (UniProt Q9NZC2). Described as above.
Assay [5] has as its target TREM2 (19–134) R62H, biotinylated (human) (UniProt Q9NZC2). Described as above.
For assay [6], the target named is TREM2 (19–134) M41D, biotinylated (human) (UniProt Q9NZC2). Described as above.
Sequence of TREM2 (19–134) M41D, biotinylated (human) (Q9NZC2 19-134 M41D): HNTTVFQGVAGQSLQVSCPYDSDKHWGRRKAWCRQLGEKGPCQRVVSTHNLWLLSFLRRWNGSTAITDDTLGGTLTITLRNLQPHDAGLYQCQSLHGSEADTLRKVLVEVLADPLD
Assay [7] has as its target TREM2 (19–134) F74D, biotinylated (human) (UniProt Q9NZC2). The description is as above.
In assay [8] the target is TREM2 (19–134) R76D, biotinylated (human) (UniProt Q9NZC2). The assay is described as above.
Sequence of TREM2 (19–134) R76D, biotinylated (human) (Q9NZC2 19-134 R76D): as the sequence (Q9NZC2 19-134 M41D) above, with D23M, R58D counted along it
In assay [9] the target is TREM2 (19–134) T85D, biotinylated (human) (UniProt Q9NZC2). The assay is described as above.
Sequence of TREM2 (19–134) T85D, biotinylated (human) (Q9NZC2 19-134 T85D): as the sequence (Q9NZC2 19-134 M41D) above, with D23M, T67D counted along it
Assay [10] deals with TREM2 (19–134) L75D, biotinylated (human) (UniProt Q9NZC2). The assay is described as above.
Sequence of TREM2 (19–134) L75D, biotinylated (human) (Q9NZC2 19-134 L75D): as the sequence (Q9NZC2 19-134 M41D) above, with D23M, L57D counted along it
The target in assay [11] is TREM2 (19–134) WT, biotinylated (human) (UniProt Q9NZC2). Nature of the assay: BLI; sequential competition: biotinylated TREM2 WT on SA biosensors dipped into a first ligand or no ligand, then buffer, then a second ligand; binding of the second ligand = response at end minus beginning of Association 2.
In assay [12] the target is TREM2 (19–134) D87N, biotinylated (human) (UniProt Q9NZC2). Nature of the assay: BLI; biotinylated TREM2 WT or variant immobilised on streptavidin (SA) biosensors; apoE in solution (apoE4 0.012–50 µM); PBS with 0.1% BSA and 0.005% Tween-20; double-reference subtraction; steady-state analysis.
Sequence of TREM2 (19–134) D87N, biotinylated (human) (Q9NZC2 19-134 D87N): as the sequence (Q9NZC2 19-134 M41D) above, with D23M, D69N counted along it
The target of another assay is C1q (Homo sapiens) (UniProt P02745). To be noted: cited from earlier work.
Sequence of C1q (Homo sapiens) (P02745 23-245, chain 1 of 3): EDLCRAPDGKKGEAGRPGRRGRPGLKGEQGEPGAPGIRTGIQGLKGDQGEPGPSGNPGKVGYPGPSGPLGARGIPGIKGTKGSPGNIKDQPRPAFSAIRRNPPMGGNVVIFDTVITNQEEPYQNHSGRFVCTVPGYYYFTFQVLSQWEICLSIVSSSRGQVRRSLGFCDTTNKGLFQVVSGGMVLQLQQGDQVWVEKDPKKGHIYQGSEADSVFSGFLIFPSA
Sequence of C1q (Homo sapiens) (P02746 28-253, chain 2 of 3, further chain): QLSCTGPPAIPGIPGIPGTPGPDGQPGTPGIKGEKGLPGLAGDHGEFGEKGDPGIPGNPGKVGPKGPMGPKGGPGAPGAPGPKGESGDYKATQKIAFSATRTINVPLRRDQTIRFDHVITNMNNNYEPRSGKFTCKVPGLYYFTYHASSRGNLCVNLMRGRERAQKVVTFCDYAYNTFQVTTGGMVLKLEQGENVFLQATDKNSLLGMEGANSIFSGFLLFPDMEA
Sequence of C1q (Homo sapiens) (P02747 29-245, chain 3 of 3, further chain): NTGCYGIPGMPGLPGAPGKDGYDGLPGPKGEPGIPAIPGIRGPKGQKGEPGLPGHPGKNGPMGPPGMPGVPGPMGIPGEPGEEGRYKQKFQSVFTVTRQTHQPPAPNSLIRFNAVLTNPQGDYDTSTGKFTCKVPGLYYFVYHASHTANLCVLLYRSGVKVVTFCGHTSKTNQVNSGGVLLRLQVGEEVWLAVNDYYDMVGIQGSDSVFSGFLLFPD

Sequence of TREM2 (19–134) WT, biotinylated (human) (Q9NZC2 19-134): as the sequence (Q9NZC2 19-134 M41D) above, with D23M counted along it
Sequence of TREM2 (19–134) R62H, biotinylated (human) (Q9NZC2 19-134 R62H): as the sequence (Q9NZC2 19-134 M41D) above, with D23M, R44H counted along it
Sequence of TREM2 (19–134) L71D, biotinylated (human) (Q9NZC2 19-134 L71D): as the sequence (Q9NZC2 19-134 M41D) above, with D23M, L53D counted along it
Sequence of TREM2 (Q9NZC2 19-174): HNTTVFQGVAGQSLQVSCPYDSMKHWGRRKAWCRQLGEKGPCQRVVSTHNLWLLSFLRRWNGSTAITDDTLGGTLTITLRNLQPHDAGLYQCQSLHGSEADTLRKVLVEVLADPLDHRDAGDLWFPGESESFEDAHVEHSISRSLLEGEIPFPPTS
Sequence of TREM2 (19–134) F74D, biotinylated (human) (Q9NZC2 19-134 F74D): as the sequence (Q9NZC2 19-134 M41D) above, with D23M, F56D counted along it
Sequence of TREM2 (19–134) R47H, biotinylated (human) (Q9NZC2 19-134 R47H): as the sequence (Q9NZC2 19-134 M41D) above, with D23M, R29H counted along it
Sequence of TREM2 (19–134) R122D/K123D, biotinylated (human) (Q9NZC2 19-134 R122D/K123D): as the sequence (Q9NZC2 19-134 M41D) above, with D23M, R104D, K105D counted along it

On to Complement C1q (complex), for which the Kd in assay [1] turned out to be 650 nM; in [2] it was 58 nM; in assay [3] it was 820 nM; in [4], 180 nM; in assay [5] it was 1660 nM; in assay [6] it was 2540 nM. Further, the Kd in assay [7] came to 110 nM; in assay [8], 13800 nM; in assay [9], 110 nM; in assay [10] it was 110 nM. For the same substance, the percent decrease of apoE4 (500 nM) binding to TREM2 after pre-binding 1000 nM C1q in assay [11] turned out to be 3%. This substance also came in with a percent inhibition of oAβ42 (500 nM) binding to TREM2 after pre-binding 1000 nM C1q in assay [11] of 22%.
Regarding “apolipoprotein E2 (from UniProt P02649 19-317) (ligand)”, the Kd in assay [12] came out at 52 nM.
In turn, “apolipoprotein E4 (from UniProt P02649 19-317) (ligand)” displayed a percent reduction of oAβ42 (500 nM) binding to TREM2 after pre-binding 10 µM apoE4 in [11] of 67%.
For TREM2 (from UniProt Q9NZC2), in the assay with C1q (Homo sapiens), the equilibrium dissociation constant (Kd) was 7.35 nM.
